Assay results reported in paper doi:10.1101/2025.06.16.659917, “MTBP allosterically activates Cdk8-CycC kinase activity” (bioRxiv, 2025).

Molecular target: T1, 6xHis-3xFLAG-Cdk8 wt (recombinant, full-length) (human, UniProt P49336 1-464)
T1 construct: Cdk8, human, full-length; Co-expressed with CycC, alone or together with MTBP(C) or Med12(N100); source: Sf9/Hi5 insect cells (baculovirus), purified (Ni-NTA, dialysis); not shown: 6xHis, N-terminal, kept
Assay: pull-down; co-expression in Sf9/Hi5 insect cells and co-purification on Ni-NTA agarose via the N-terminal 6His-tag on Cdk8; 20 mM HEPES pH 8.0, 150 mM NaCl, 2% glycerol, 0.1% Triton X-100, 0.5 mM TCEP, 20 mM imidazole; 4°C
Conditions: partners not purified

T1 sequence (P49336 whole entry): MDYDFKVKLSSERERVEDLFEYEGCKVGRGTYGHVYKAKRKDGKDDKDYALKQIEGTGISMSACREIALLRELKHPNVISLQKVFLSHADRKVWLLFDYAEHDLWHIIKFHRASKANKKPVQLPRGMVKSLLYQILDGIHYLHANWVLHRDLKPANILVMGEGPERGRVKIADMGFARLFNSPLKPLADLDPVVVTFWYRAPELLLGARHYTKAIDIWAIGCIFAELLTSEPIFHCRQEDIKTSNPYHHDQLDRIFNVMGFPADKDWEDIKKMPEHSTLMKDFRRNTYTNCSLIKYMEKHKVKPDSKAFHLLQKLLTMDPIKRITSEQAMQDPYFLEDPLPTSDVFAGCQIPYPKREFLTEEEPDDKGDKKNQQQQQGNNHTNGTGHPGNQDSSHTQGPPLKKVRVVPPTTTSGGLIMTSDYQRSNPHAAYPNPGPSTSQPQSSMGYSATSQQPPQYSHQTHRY

B1: Med12(N100) (recombinant Med12 residues 1-100) (domain or fragment, human, UniProt Q93074 1-100, looked up)
chain: MAAFGILSYEHRPLKRPRLGPPDVYPQDPKQKEDELTALNVKQGFNNQPAVSGDEHGSAKNVSFNPAKISSNFSSIIAEKLRCNTLPDTGRRKPQVNQKD
notes: Med12, human, residues 1-100; also called Med12-1-100; Med12(1-100); source: Sf9/Hi5 insect cells (baculovirus), co-expressed with Cdk8 and CycC, purified (Ni-NTA via Cdk8); also purified alone
B1: binds.
